Assay results taken from patent publication US8933202B2, “AXL antibodies” (U3 Pharma GmbH, priority 2007, dated 2015).

Legend:
HUVEC spheroids = test: Spheroid-based cellular angiogenesis assay; type: cell-based, human; settings: 25 ng/ml VEGF-A, 24 h
Procedure: AXL is a key regulator of multiple angiogenic behaviors including endothelial cell migration, proliferation, and tube formation in vitro (Holland et al., Cancer Res: 65, 9294-9303, 2005). […] The experiments were pursued in modification of the originally published protocol (Korff and Augustin: J Cell Sci 112: 3249-58, 1999). In brief, spheroids were prepared as described (Korff and Augustin: J Cell Biol 143: 1341-52, 1998) by pipetting 500 human umbilical vein endothelial cells (HUVEC) in a hanging drop on plastic dishes to allow over night spheroid aggregation. 50 HUVEC spheroids were then seeded in 0.9 ml of a collagen solution (2 mg/ml) and pipetted into individual wells of a 24 well plate to allow polymerization. […] Plates were incubated at 37° C. for 24 hours and fixed by adding 4% paraformaldehyde. Sprouting intensity of HUVEC spheroids was quantified by an image analysis system that determines the cumulative sprout length per spheroid using an inverted microscope and the digital imaging software Analysis 3.2 (Soft imaging system, Munster, Germany). The mean of the cumulative sprout length of 10 randomly selected spheroids was analyzed as an individual data point.

human AXL-ECD = molecular target: T1, human AXL-ECD (Homo sapiens, UniProt P30530); test: Competition ELISA on AXL-ECD coated plates; type: binding; settings: 10 μg/ml unbiotinylated, 0.5 μg/ml biotinylated antibody
T1 construct: purchased R&D Systems 154-AL
T1 sequence (P30530 26-451 limits assumed): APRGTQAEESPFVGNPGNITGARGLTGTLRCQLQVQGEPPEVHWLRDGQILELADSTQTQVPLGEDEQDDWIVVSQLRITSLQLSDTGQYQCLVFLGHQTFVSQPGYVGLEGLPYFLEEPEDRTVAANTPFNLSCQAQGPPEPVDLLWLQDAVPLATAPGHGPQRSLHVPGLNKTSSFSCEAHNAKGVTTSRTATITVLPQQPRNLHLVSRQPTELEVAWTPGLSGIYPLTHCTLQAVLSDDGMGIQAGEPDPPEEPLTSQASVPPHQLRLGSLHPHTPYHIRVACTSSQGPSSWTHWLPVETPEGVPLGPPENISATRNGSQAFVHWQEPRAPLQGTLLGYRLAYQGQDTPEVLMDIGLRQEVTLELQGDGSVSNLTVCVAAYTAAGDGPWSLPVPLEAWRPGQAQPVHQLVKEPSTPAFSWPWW
Procedure: Therefore binding of biotinylated anti-AXL antibodies to AXL-ECD domain-coated plates preincubated with anti-AXL antibodies was determined in a competition ELISA. […] On day 1, black 96 well Maxi-Sorp plates (Nunc) were coated with 100 μl/well of 1 μg/ml human AXL-ECD (R&D Systems #154-AL) in PBS over night at 4° C. […] After washing 6× with wash buffer (PBS, 0.1% TWEEN-20), 80 μl/well AP-conjugated Streptavidin (Chemicon #SA110) diluted 1:4,000 in blocking buffer were added, incubated for 20 min at room temperature washed again 6× with wash buffer and finally washed once with PBS. For detection, 100 μl/well Attophos substrate solution (Roche #11681982) were added. Using a Victor plate reader (Perkin Elmer), the fluorescence of each well was collected at an excitation wavelength of 430 nm an emission wavelength of 580 nm.

p42/p44 MAP-Kinase = p42/p44 MAP-Kinase phosphorylation ELISA, rat versus chimeric antibody; type: cell-based, human; settings: 50 ng/ml to 10 μg/ml antibody, 400 ng/ml Gas6; CaSki
Procedure: To additionally verify whether the rat anti-Axl antibodies of the invention and the corresponding chimeric anti-Axl antibodies of the invention were also able to inhibit Gash-induced activation of p42/p44 MAP-Kinase in CaSki cervical cancer cells to similar extent, ELISA experiments were performed. Here, Gas6-induced p42/p44 MAP-Kinase activation was detected by increased protein (Thr202/Tyr204) phosphorylation. In brief, on the first day, 2×10^4 cells per well were seeded in flat-bottom 96 well plates. The next day, normal growth medium was replaced by serum-free medium to starve cells for 24 h. Thereafter, cells were pre-incubated with 50 ng/ml, 100 ng/ml, 300 ng/ml, 750 ng/ml, 1 μg/ml, and 10 μg/ml of rat anti-Axl antibody 11B7 or chimeric anti-Axl antibody ch11B7 for 1 h at 37° C. and then treated with or without 400 ng/ml Gas6 (R&D Systems) for 10 min at 37° C. Medium was flicked out and cells were fixed with 4% formaldehyde in PBS (pH 7.5) for 30 min at room temperature. Formaldehyde solution was removed and cells were washed twice with wash buffer (PBS, 0.1% Tween 20). Cells were quenched with 1% H2O2, 0.1% NaN3 in wash buffer and incubated for 20 min at room temperature. […] Tetramethylbenzidine (TMB, Calbiochem) was added and monitored at 620 nm.

B1: 11B7: antagonistic rat anti-AXL monoclonal antibody, rat IgG1 (antibody, V domains shown)
VL: DIQMTQAPSSLPASLGDRVTITCRASQDIGNYLRWFQQKPGKSPRLMISGATNLAAGVPSRFSGSRSGSDYSLTISSLESEDMADYYCLQSKESPWTFGGGTKLELK
VH: EVQLQESGPGLVKPSQSLSLTCSVTGYSITSNYWGWIRKFPGDKMEWMGYITYSGSTSYNPSLKSRISITRDTSKNQFFLQLNSVTSEDTATYYCAITTFYYWGQGVMVTVSS
HUVEC sprouting at the highest antibody concentration (HUVEC spheroids): reduced HUVEC sprouting to basal levels
competition with antagonistic anti-AXL antibodies for binding to AXL-ECD (human AXL-ECD): compete with each other for the same or structurally adjacent epitopes
Gas6-induced p42/p44 MAP-Kinase activation, concentration-dependent (p42/p44 MAP-Kinase): able to block Gas6-induced activation of p42/p44 MAP-Kinase in CaSki cervical cancer cells to similar extent
